According to article PMC5503512, “The complex of TRIP-Br1 and XIAP ubiquitinates and degrades multiple adenylyl cyclase isoforms” (eLife, 2017):
Each block holds one binder with its values, some of them ahead of it.

How the values were obtained:
[1] = target: T1, FLAG-His-tagged AC1-M (AC1 amino acids 236-612) (bovine, UniProt P19754 236-612); assay: pull-down; pairwise pull-down, two purified proteins from E. coli, 5 μg of each, FLAG-His-tagged AC1 fragment held on anti-FLAG M2 affinity gel, Co-IP buffer, 500 μL, 2 hr at 4°C; washed with PBS containing 1% Triton X-100; western blot; conditions: both partners purified
T1 construct: Ends of the tags as in the printed name His-AC1-M-FLAG; also called His-AC1-M-FLAG; M, cytosolic region between the 2 transmembrane domains; not shown: His, N-terminal, kept; FLAG, C-terminal, kept

[2] = target: T2, His-XIAP purified from E. coli (human, UniProt P98170 1-497); assay: pull-down; GST, GST-TRIP-Br1 or GST-TRIP-Br1 truncation mutants used to capture His-XIAP purified from E. coli; conditions: both partners purified
T2 construct: also called purified XIAP; source: E. coli BL21, purified (Ni-NTA, with 200 μM zinc sulfate)
T2 sequence (P98170 whole entry, the tested form may be a part): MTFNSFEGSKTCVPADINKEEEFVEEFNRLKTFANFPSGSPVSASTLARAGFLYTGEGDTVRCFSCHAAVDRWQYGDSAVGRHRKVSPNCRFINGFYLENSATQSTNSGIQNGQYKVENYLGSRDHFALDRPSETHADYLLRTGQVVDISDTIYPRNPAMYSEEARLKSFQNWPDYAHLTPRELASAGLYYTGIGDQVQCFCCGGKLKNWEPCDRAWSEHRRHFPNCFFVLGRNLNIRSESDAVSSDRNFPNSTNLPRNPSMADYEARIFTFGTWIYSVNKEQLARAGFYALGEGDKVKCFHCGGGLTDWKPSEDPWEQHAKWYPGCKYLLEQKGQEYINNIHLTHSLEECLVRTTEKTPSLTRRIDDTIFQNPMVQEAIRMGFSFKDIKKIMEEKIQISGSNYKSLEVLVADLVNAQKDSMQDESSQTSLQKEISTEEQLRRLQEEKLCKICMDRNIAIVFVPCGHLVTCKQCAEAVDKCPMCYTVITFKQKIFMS

T1 sequence (P19754 236-612): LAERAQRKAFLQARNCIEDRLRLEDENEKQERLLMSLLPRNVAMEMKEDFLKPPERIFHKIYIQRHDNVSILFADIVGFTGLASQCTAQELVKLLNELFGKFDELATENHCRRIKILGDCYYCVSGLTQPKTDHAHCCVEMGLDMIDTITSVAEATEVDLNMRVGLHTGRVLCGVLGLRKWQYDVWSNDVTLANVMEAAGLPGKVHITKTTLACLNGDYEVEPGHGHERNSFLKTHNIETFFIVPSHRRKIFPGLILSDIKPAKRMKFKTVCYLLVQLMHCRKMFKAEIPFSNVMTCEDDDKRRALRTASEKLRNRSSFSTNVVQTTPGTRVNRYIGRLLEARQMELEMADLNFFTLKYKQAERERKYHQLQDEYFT

- binding result [1]: binds
B1: purified TRIP-Br1 (His-tagged at both N and C termini) (natural protein, human, UniProt Q9UHV2 1-236, looked up)
chain: MLSKGLKRKREEEEEKEPLAVDSWWLDPGHTAVAQAPPAVASSSLFDLSVLKLHHSLQQSEPDLRHLVLVVNTLRRIQASMAPAAALPPVPSPPAAPSVADNLLASSDAALSASMASLLEDLSHIEGLSQAPQPLADEGPPGRSIGGAAPSLGALDLLGPATGCLLDDGLEGLFEDIDTSMYDNELWAPASEGLKPGPEDGPGKEEAPELDEAELDYLMDVLVGTQALERPPGPGR
notes: TRIP-Br1 (SERTAD1), human, cDNA amplified from Calu-3 cells; The methods call it His-TRIP-Br1; the legends say His-tagged at both termini; also called His-TRIP-Br1; source: E. coli BL21 (codon plus), purified (Ni-NTA); not shown: His, N-terminal, kept; His, C-terminal, kept

- binding result [2]: binds
B2: GST-TRIP-Br1 fusion protein (full-length TRIP-Br1 fused with GST) (natural protein, human, UniProt Q9UHV2 1-236, looked up)
chain: B1 chain
notes: also called Sertad1; SEI-1; source: E. coli BL21 codon plus, purified (glutathione-Sepharose)
